Key:
Format in all cases: ADME, microsomes
[1] = substrate: COCCCOc1cc(C[C@@H](C[C@H](N)[C@@H](O)C[C@H](C(=O)NCC(C)(C)C(N)=O)C(C)C)C(C)C)ccc1OC; test: Enzyme kinetics constant (Km value) for CYP4F3B was determined in human liver microsome incubated with [14C]SPP100 hemifumarate
[2] = substrate: COCCCOc1cc(C[C@@H](C[C@H](N)[C@@H](O)C[C@H](C(=O)NCC(C)(C)C(N)=O)C(C)C)C(C)C)ccc1OC; test: Enzyme kinetics constant (Km value) for CYP2D6 was determined in human liver microsome incubated with [14C]SPP100 hemifumarate
[3] = substrate: COCCCOc1cc(C[C@@H](C[C@H](N)[C@@H](O)C[C@H](C(=O)NCC(C)(C)C(N)=O)C(C)C)C(C)C)ccc1OC; test: Enzyme kinetics constant (Km value) for CYP4F2 was determined in human liver microsome incubated with [14C]SPP100 hemifumarate
[4] = substrate: COCCCOc1cc(C[C@@H](C[C@H](N)[C@@H](O)C[C@H](C(=O)NCC(C)(C)C(N)=O)C(C)C)C(C)C)ccc1OC; test: Enzyme kinetics constant (Km value) for CYP3A7 was determined in human liver microsome incubated with [14C]SPP100 hemifumarate
[5] = substrate: COCCCOc1cc(C[C@@H](C[C@H](N)[C@@H](O)C[C@H](C(=O)NCC(C)(C)C(N)=O)C(C)C)C(C)C)ccc1OC; test: Enzyme kinetics constant (Km value) for CYP3A5 was determined in human liver microsome incubated with [14C]SPP100 hemifumarate
[6] = substrate: COCCCOc1cc(C[C@@H](C[C@H](N)[C@@H](O)C[C@H](C(=O)NCC(C)(C)C(N)=O)C(C)C)C(C)C)ccc1OC; test: Enzyme kinetics constant (Km value) for CYP4A11 was determined in human liver microsome incubated with [14C]SPP100 hemifumarate
[7] = substrate: COCCCOc1cc(C[C@@H](C[C@H](N)[C@@H](O)C[C@H](C(=O)NCC(C)(C)C(N)=O)C(C)C)C(C)C)ccc1OC; test: Enzyme kinetics constant (Km value) for CYP2J2 was determined in human liver microsome incubated with [14C]SPP100 hemifumarate
[8] = substrate: COCCCOc1cc(C[C@@H](C[C@H](N)[C@@H](O)C[C@H](C(=O)NCC(C)(C)C(N)=O)C(C)C)C(C)C)ccc1OC; test: Enzyme kinetics constant (Km value) for CYP2E1 was determined in human liver microsome incubated with [14C]SPP100 hemifumarate

B1: Cytochrome P450 4F3 (Homo sapiens) (protein)
chain: MPQLSLSSLGLWPMAASPWLLLLLVGASWLLARILAWTYTFYDNCCRLRCFPQPPKRNWFLGHLGLIHSSEEGLLYTQSLACTFGDMCCWWVGPWHAIVRIFHPTYIKPVLFAPAAIVPKDKVFYSFLKPWLGDGLLLSAGEKWSRHRRMLTPAFHFNILKPYMKIFNESVNIMHAKWQLLASEGSARLDMFEHISLMTLDSLQKCVFSFDSHCQEKPSEYIAAILELSALVTKRHQQILLYIDFLYYLTPDGQRFRRACRLVHDFTDAVIQERRRTLPSQGVDDFLQAKAKSKTLDFIDVLLLSKDEDGKKLSDEDIRAEADTFMFEGHDTTASGLSWVLYHLAKHPEYQERCRQEVQELLKDREPKEIEWDDLAQLPFLTMCIKESLRLHPPVPAVSRCCTQDIVLPDGRVIPKGIICLISVFGTHHNPAVWPDPEVYDPFRFDPKNIKERSPLAFIPFSAGPRNCIGQAFAMAEMKVVLGLTLLRFRVLPDHTEPRRKPELVLRAEGGLWLRVEPLS
[1]
  Km: 5 µM
  Vmax: 0.000121 µmol/min/mg

B2: Cytochrome P450 2D6 (Homo sapiens) (protein)
chain: MGLEALVPLAVIVAIFLLLVDLMHRRQRWAARYPPGPLPLPGLGNLLHVDFQNTPYCFDQLRRRFGDVFSLQLAWTPVVVLNGLAAVREALVTHGEDTADRPPVPITQILGFGPRSQGVFLARYGPAWREQRRFSVSTLRNLGLGKKSLEQWVTEEAACLCAAFANHSGRPFRPNGLLDKAVSNVIASLTCGRRFEYDDPRFLRLLDLAQEGLKEESGFLREVLNAVPVLLHIPALAGKVLRFQKAFLTQLDELLTEHRMTWDPAQPPRDLTEAFLAEMEKAKGNPESSFNDENLRIVVADLFSAGMVTTSTTLAWGLLLMILHPDVQRRVQQEIDDVIGQVRRPEMGDQAHMPYTTAVIHEVQRFGDIVPLGVTHMTSRDIEVQGFRIPKGTTLITNLSSVLKDEAVWEKPFRFHPEHFLDAQGHFVKPEAFLPFSAGRRACLGEPLARMELFLFFTSLLQHFSFSVPTGQPRPSHHGVFAFLVSPSPYELCAVPR
[2]
  Km: 73.6 µM
  Vmax: 0.00548 µmol/min/mg

B3: Cytochrome P450 4F2 (Homo sapiens) (protein)
chain: MSQLSLSWLGLWPVAASPWLLLLLVGASWLLAHVLAWTYAFYDNCRRLRCFPQPPRRNWFWGHQGMVNPTEEGMRVLTQLVATYPQGFKVWMGPISPLLSLCHPDIIRSVINASAAIAPKDKFFYSFLEPWLGDGLLLSAGDKWSRHRRMLTPAFHFNILKPYMKIFNESVNIMHAKWQLLASEGSACLDMFEHISLMTLDSLQKCVFSFDSHCQEKPSEYIAAILELSALVSKRHHEILLHIDFLYYLTPDGQRFRRACRLVHDFTDAVIQERRRTLPSQGVDDFLQAKAKSKTLDFIDVLLLSKDEDGKKLSDEDIRAEADTFMFEGHDTTASGLSWVLYHLAKHPEYQERCRQEVQELLKDREPKEIEWDDLAHLPFLTMCMKESLRLHPPVPVISRHVTQDIVLPDGRVIPKGIICLISVFGTHHNPAVWPDPEVYDPFRFDPENIKERSPLAFIPFSAGPRNCIGQTFAMAEMKVVLALTLLRFRVLPDHTEPRRKPELVLRAEGGLWLRVEPLS
[3]
  Km: 11.3 µM
  Vmax: 8.91e-05 µmol/min/mg

B4: Cytochrome P450 3A7 (Homo sapiens) (protein)
chain: MDLIPNLAVETWLLLAVSLILLYLYGTRTHGLFKKLGIPGPTPLPFLGNALSFRKGYWTFDMECYKKYRKVWGIYDCQQPMLAITDPDMIKTVLVKECYSVFTNRRPFGPVGFMKNAISIAEDEEWKRIRSLLSPTFTSGKLKEMVPIIAQYGDVLVRNLRREAETGKPVTLKHVFGAYSMDVITSTSFGVSIDSLNNPQDPFVENTKKLLRFNPLDPFVLSIKVFPFLTPILEALNITVFPRKVISFLTKSVKQIKEGRLKETQKHRVDFLQLMIDSQNSKDSETHKALSDLELMAQSIIFIFAGYETTSSVLSFIIYELATHPDVQQKVQKEIDTVLPNKAPPTYDTVLQLEYLDMVVNETLRLFPVAMRLERVCKKDVEINGMFIPKGVVVMIPSYVLHHDPKYWTEPEKFLPERFSKKNKDNIDPYIYTPFGSGPRNCIGMRFALVNMKLALVRVLQNFSFKPCKETQIPLKLRFGGLLLTEKPIVLKAESRDETVSGA
[4]
  Km: 32.6 µM
  Vmax: 0.000113 µmol/min/mg

B5: Cytochrome P450 3A5 (Homo sapiens) (protein)
chain: MDLIPNLAVETWLLLAVSLVLLYLYGTRTHGLFKRLGIPGPTPLPLLGNVLSYRQGLWKFDTECYKKYGKMWGTYEGQLPVLAITDPDVIRTVLVKECYSVFTNRRSLGPVGFMKSAISLAEDEEWKRIRSLLSPTFTSGKLKEMFPIIAQYGDVLVRNLRREAEKGKPVTLKDIFGAYSMDVITGTSFGVNIDSLNNPQDPFVESTKKFLKFGFLDPLFLSIILFPFLTPVFEALNVSLFPKDTINFLSKSVNRMKKSRLNDKQKHRLDFLQLMIDSQNSKETESHKALSDLELAAQSIIFIFAGYETTSSVLSFTLYELATHPDVQQKLQKEIDAVLPNKAPPTYDAVVQMEYLDMVVNETLRLFPVAIRLERTCKKDVEINGVFIPKGSMVVIPTYALHHDPKYWTEPEEFRPERFSKKKDSIDPYIYTPFGTGPRNCIGMRFALMNMKLALIRVLQNFSFKPCKETQIPLKLDTQGLLQPEKPIVLKVDSRDGTLSGE
[5]
  Km: 28.7 µM
  Vmax: 0.00135 µmol/min/mg

B6: Cytochrome P450 4A11 (Homo sapiens) (protein)
chain: MSVSVLSPSRLLGDVSGILQAASLLILLLLLIKAVQLYLHRQWLLKALQQFPCPPSHWLFGHIQELQQDQELQRIQKWVETFPSACPHWLWGGKVRVQLYDPDYMKVILGRSDPKSHGSYRFLAPWIGYGLLLLNGQTWFQHRRMLTPAFHYDILKPYVGLMADSVRVMLDKWEELLGQDSPLEVFQHVSLMTLDTIMKCAFSHQGSIQVDRNSQSYIQAISDLNNLVFSRVRNAFHQNDTIYSLTSAGRWTHRACQLAHQHTDQVIQLRKAQLQKEGELEKIKRKRHLDFLDILLLAKMENGSILSDKDLRAEVDTFMFEGHDTTASGISWILYALATHPKHQERCREEIHSLLGDGASITWNHLDQMPYTTMCIKEALRLYPPVPGIGRELSTPVTFPDGRSLPKGIMVLLSIYGLHHNPKVWPNPEVFDPFRFAPGSAQHSHAFLPFSGGSRNCIGKQFAMNELKVATALTLLRFELLPDPTRIPIPIARLVLKSKNGIHLRLRRLPNPCEDKDQL
[6]
  Km: 3.1 µM
  Vmax: 1.55e-05 µmol/min/mg

B7: Cytochrome P450 2J2 (Homo sapiens) (protein)
chain: MLAAMGSLAAALWAVVHPRTLLLGTVAFLLAADFLKRRRPKNYPPGPWRLPFLGNFFLVDFEQSHLEVQLFVKKYGNLFSLELGDISAVLITGLPLIKEALIHMDQNFGNRPVTPMREHIFKKNGLIMSSGQAWKEQRRFTLTALRNFGLGKKSLEERIQEEAQHLTEAIKEENGQPFDPHFKINNAVSNIICSITFGERFEYQDSWFQQLLKLLDEVTYLEASKTCQLYNVFPWIMKFLPGPHQTLFSNWKKLKLFVSHMIDKHRKDWNPAETRDFIDAYLKEMSKHTGNPTSSFHEENLICSTLDLFFAGTETTSTTLRWALLYMALYPEIQEKVQAEIDRVIGQGQQPSTAARESMPYTNAVIHEVQRMGNIIPLNVPREVTVDTTLAGYHLPKGTMILTNLTALHRDPTEWATPDTFNPDHFLENGQFKKREAFMPFSIGKRACLGEQLARTELFIFFTSLMQKFTFRPPNNEKLSLKFRMGITISPVSHRLCAVPQV
[7]
  Km: 67 µM
  Vmax: 0.000604 µmol/min/mg

B8: Cytochrome P450 2E1 (Homo sapiens) (protein)
chain: MSALGVTVALLVWAAFLLLVSMWRQVHSSWNLPPGPFPLPIIGNLFQLELKNIPKSFTRLAQRFGPVFTLYVGSQRMVVMHGYKAVKEALLDYKDEFSGRGDLPAFHAHRDRGIIFNNGPTWKDIRRFSLTTLRNYGMGKQGNESRIQREAHFLLEALRKTQGQPFDPTFLIGCAPCNVIADILFRKHFDYNDEKFLRLMYLFNENFHLLSTPWLQLYNNFPSFLHYLPGSHRKVIKNVAEVKEYVSERVKEHHQSLDPNCPRDLTDCLLVEMEKEKHSAERLYTMDGITVTVADLFFAGTETTSTTLRYGLLILMKYPEIEEKLHEEIDRVIGPSRIPAIKDRQEMPYMDAVVHEIQRFITLVPSNLPHEATRDTIFRGYLIPKGTVVVPTLDSVLYDNQEFPDPEKFKPEHFLNENGKFKYSDYFKPFSTGKRVCAGEGLARMELFLLLCAILQHFNLKPLVDPKDIDLSPIHIGFGCIPPRYKLCVIPRS
[8]
  Km: 31.9 µM
  Vmax: 4.62e-05 µmol/min/mg
